From patent US20250382367A1 (published 2025) come the findings set out here.

In assay [1] the target is T1, biotinylated CD150 protein (UniProt Q13291 21-237, labeled with biotin, sites not stated).
T1 chain: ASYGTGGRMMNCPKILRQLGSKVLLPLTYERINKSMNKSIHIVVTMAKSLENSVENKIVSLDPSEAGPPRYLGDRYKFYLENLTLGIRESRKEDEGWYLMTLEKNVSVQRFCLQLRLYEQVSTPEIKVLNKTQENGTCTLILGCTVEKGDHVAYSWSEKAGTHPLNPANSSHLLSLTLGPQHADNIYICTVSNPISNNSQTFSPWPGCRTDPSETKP
The assay can be described thus: BLI. On the technique in general: In BLI a coated tip is dipped into the sample, and binding shifts an interference pattern.

Assay [2] deals with CD150 protein (extracellular domain, hFc fragment cleaved off with TEV protease) (UniProt Q13291). The experiment in a line: non-competitive ELISA; CD150 coated at 10 ug/mL, nanobody Fc fusion diluted 1:4 in series, HRP anti-IgG1 Fc detection.

B1: nanobody Fc fusion protein (anti-CD150 nanobody fused with human IgG1 Fc) (Fc fusion)
chain: QVQLVESGGGLVQAGGSLRLSCAASGRAFSDYAVGWFRQAPGREREFVATISWSGFSTYYADSVKGRFTISRDNAEKTVTLQMNSLKPEDTAVYYCAADRNGTSFPYIRRDEYDYWGQGTQVT
With B1, in assay [1], the Kd stood at 20.1 nM. Further, the EC50 in assay [2] amounted to 0.0333 µg/mL.

Broadly, the Kd is the equilibrium constant for the complex coming apart. A high value points to a looser complex. In general, EC50 refers to the concentration that produces a half-maximal response.
